Laboratory results from patent US20210340516A1, “COMPOSITIONS CONTAINING ARGINASE 1 FOR THE TREATMENT OF NEUROVASCULAR AND RETINAL VASCULAR DISORDERS” (Augusta University Research Institute, Inc., priority 2020, published 2021).

How the values were obtained:
[1] = system: C57BL/6J mice subjected to middle cerebral artery occlusion (MCAO); assay: MCAO stroke model: infarct size (TTC) and Bederson score; type: in vivo, mouse; conditions: 60 minutes MCAO, 24 hours
Description: MCAO model: C57BL/6J mice (12-16 week-old male, 25-30 g) were subjected to middle cerebral artery occlusion (MCAO) using the intraluminal filament technique (Docol 602145) for 60-minutes followed by reperfusion as described in Eldahshan, et al., American Journal of Physiology Heart and Circulatory Physiology, 316:H1192-h201 (2019). […] A heating pad was used to maintain body temperature at 37° C. […] Sham surgery involved all the regular surgery steps except the filament insertion. Mice were deeply anesthetized at 24 hours and sacrificed by trans-cardial perfusion with PBS then brains were collected and sectioned for triphenyl tetrazolium chloride (TTC) staining or homogenized in RIPA lysis buffer for western blotting. […]
The stroke experiment involved behavioral scoring and manual quantification of the infarct size, and was conducted in a blinded fashion following the STAIR criteria. […]
Infarct size analysis: Brain infarct size was determined based on TTC staining of brain sections as described in Eldahshan, et al., American Journal of Physiology Heart and Circulatory Physiology, 316:H1192-h201 (2019). Images of TTC-stained sections were analyzed in a blinded fashion using ImageJ software [National Institutes of Health (NIH)], and the infarct size was calculated with edema correction using the following formula: 100×[nonstroked−(stroked−infarct)]/nonstroked. […]

[2] = system: mice subjected to optic nerve crush (ONC); assay: Optic nerve crush (ONC) model of traumatic optic neuropathy: neuroprotection by NeuN labeling; type: in vivo, mouse; conditions: 7 days post-ONC, treated at 3 hours and day 4; vehicle group 62%
Description: Mouse retinal ischemia-reperfusion (IR) injury and traumatic optic neuropathy (TON) models: All experiments were performed in accordance with the ARVO Statement for the Use of Animals in Ophthalmic and Vision Research and were approved by the institutional animal care and use committee (Animal Welfare Assurance no. D16-00197). Wild-type (WT) C57BL/6J mice (10-12 weeks old) were anesthetized using ketamine/xylazine mixture then subjected to retinal ischemia-reperfusion (IR) injury or optic nerve crush (ONC) to model traumatic optic neuropathy (TON) as described in Shosha, et al., Cell death & disease, 7:e2483-e (2016) and Xu, et al., Frontiers in Neuroscience, 12:970 (2018). […]
Evaluation of retinal neurodegeneration: Retina flat-mounts and explants were immunolabeled for the neuronal marker, NeuN (Millipore), as previously described in Shosha, et al., Cell death & disease, 7:e2483-e (2016). Images were collected and analyzed in a blinded fashion using a semi-automated method. […] NeuN-positive cells were quantified using ImageJ software ‘Batch processing’ function. […] The macro was validated every time it was used to make sure it is compatible with the set of images being analyzed. […]

[3] = system: bone marrow-derived macrophages (BMDMs); assay: PEG-A1 intracellular uptake by bone marrow-derived macrophages (anti-PEG Western blot); type: cell-based, mouse; conditions: BMDMs treated overnight, washed with PBS
Description: BMDMs: Bone marrow-derived macrophages (BMDMs) were freshly isolated from WT mice and differentiated in culture as described in Fouda, A Y, et al., Cell death & Disease, 9:1001 (2018). To determine PEG-A1 intracellular uptake by macrophages, BMDMs were treated overnight with PEG-A1 or vehicle and then washed several times with phosphate buffered saline (PBS) before collection in RIPA buffer for Western blotting.
Previous studies have shown that myeloid specific A1 deletion using the LysM cre mice leads to increased neurodegeneration in the retinal IR model (Fouda, A Y, et al., Cell death & Disease, 9:1001 (2018)). […] To test the effect of possible neuronal A1 deletion on the previously reported IR outcome in these mice, control and myeloid-specific A1 KO retina explants were subjected to OGD/R (3 hours/21 hours) (FIG. 21A). The explant model excludes any effects due to infiltrating myeloid cells. […] To further test if macrophage can incorporate PEG-A1, BMDMs were treated with PEG-A1 or vehicle overnight and then washed with PBS several times before Western blotting.

B1: PEG-A1: recombinant human arginase (rhArg) covalently attached to methoxy polyethylene glycol (mPEG-SPA; MW 5,000) via succinamide propionic acid (SPA) linker (protein, UniProt P05089 1-322, looked up)
Arginase-1: MSAKSRTIGIIGAPFSKGQPRGGVEEGPTVLRKAGLLEKLKEQECDVKDYGDLPFADIPNDSPFQIVKNPRSVGKASEQLAGKVAEVKKNGRISLVLGGDHSLAIGSISGHARVHPDLGVIWVDAHTDINTPLTTTSGNLHGQPVSFLLKELKGKIPDVPGFSWVTPCISAKDIVYIGLRDVDPGEHYILKTLGIKYFSMTEVDRLGIGKVMEETLSYLLGRKKRPIHLSFDVDGLDPSFTPATGTPVVGGLTYREGLYITEEIYKTGLLSGLDIMEVNPSLGKTPEEVTRTVNTAVAITLACFGLAREGNHKPIDYLNPPK
modifications: mPEG-SPA 5 kDa conjugate
notes: recombinant human arginase (rhArg) covalently attached to methoxy polyethylene glycol (mPEG-SPA; MW 5,000) via succinamide propionic acid (SPA) linker
Bederson score [1]: trend towards improved Bederson score that did not reach statistical significance
infarct size (TTC, percent of contralesional hemisphere) ([1]; vehicle 41%): 34%
neuroprotection after ONC (NeuN labeling and quantification) [2]: 78%
anti-PEG band in macrophage cell lysate (intracellular uptake) [3]: strong band
